Experimental findings from paper PMC11882521, “Cofactor engineering for improved production of 2,4-dihydroxybutyric acid via the synthetic homoserine pathway” (Frontiers in Bioengineering and Biotechnology, 2025) are described below.

Data set [1] deals with T1, Ec.Mdh^5Q D34G (OHB reductase, engineered E. coli malate dehydrogenase) (Escherichia coli, UniProt P61889, I12V/D34G/R81A/M85Q/D86S/G179D).
T1 construct: N-terminally 6x-His-tagged
Kind of data set: specific activity of purified enzyme at […] OHB and […] NADH. Type of data set: biochemical.

Data set [2] addresses T1, Ec.Mdh^5Q D34G (OHB reductase, engineered E. coli malate dehydrogenase). Kind of data set: specific activity of purified enzyme at […] OHB and […] NADPH. Type of data set: biochemical.
Data set [3] relates to T2, NC(=O)C1=CN([C@@H]2O[C@H](COP(=O)(O)OP(=O)(O)OC[C@H]3O[C@@H](n4cnc5c(N)ncnc54)[C@H](O)[C@@H]3O)[C@@H](O)[C@H]2O)C=CC1.
T2 construct: N-terminally 6x-His-tagged
Kind of data set: purified protein. Type of data set: biochemical, Escherichia coli. The note with it: co-enzyme binding site, varied: cofactor.

The next data set has as its system T3, O=C(O)C(=O)CCO.
T3 construct: N-terminally 6x-His-tagged
Kind of data set: purified protein. Type of data set: biochemical, Escherichia coli.

Data set [4] has as its system T4, NC(=O)C1=CN([C@@H]2O[C@H](COP(=O)(O)OP(=O)(O)OC[C@H]3O[C@@H](n4cnc5c(N)ncnc54)[C@H](OP(=O)(O)O)[C@@H]3O)[C@@H](O)[C@H]2O)C=CC1.
T4 construct: N-terminally 6x-His-tagged
Briefly: purified protein. It is filed as biochemical, Escherichia coli. The conditions noted are these: varied: cofactor.

The mark [5] stands for this setting: NADPH uncompetitive substrate inhibition (Ki =[…]).
Where [6] appears, read: […]'-phosphate group near positions […] and […] (selectivity control loop, cofactor binding motif of the Rossmann fold).
[7] abbreviates: Asp34 confers cofactor specificity.
[8] abbreviates: co-enzyme binding site, Asp34 disfavours the […]'-phosphate group.

T1 sequence (P61889 whole entry I12V/D34G/R81A/M85Q/D86S/G179D): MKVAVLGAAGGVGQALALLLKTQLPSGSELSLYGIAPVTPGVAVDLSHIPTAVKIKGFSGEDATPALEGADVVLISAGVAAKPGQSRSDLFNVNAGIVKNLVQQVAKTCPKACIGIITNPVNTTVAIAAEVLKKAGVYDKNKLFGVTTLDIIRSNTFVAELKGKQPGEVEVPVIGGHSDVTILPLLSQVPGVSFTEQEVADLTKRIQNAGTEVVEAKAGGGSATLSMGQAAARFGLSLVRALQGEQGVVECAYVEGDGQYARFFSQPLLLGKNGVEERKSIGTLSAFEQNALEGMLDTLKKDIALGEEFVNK

As for `NC(=O)C1=CN([C@@H]2O[C@H](COP(=O)(O)OP(=O)(O)OC[C@H]3O[C@@H](n4cnc5c(N)ncnc54)[C@H](O)[C@@H]3O)[C@@H](O)[C@H]2O)C=CC1` [NADH], in data set [1], the “specific activity of purified enzyme at 2 mM OHB and 0.25 mM NADH” value is 23 ± 2 U mg^−1 (specific activity).

Take `NC(=O)C1=CN([C@@H]2O[C@H](COP(=O)(O)OP(=O)(O)OC[C@H]3O[C@@H](n4cnc5c(N)ncnc54)[C@H](OP(=O)(O)O)[C@@H]3O)[C@@H](O)[C@H]2O)C=CC1` [NADPH]: the “specific activity of purified enzyme at 2 mM OHB and 0.25 mM NADPH” value in data set [2] is on record as 35 ± 3 U mg^−1 (specific activity).

Broadly, the Km is the substrate concentration at which the rate is half of its maximum. A word on the Vmax: it is the top rate of the reaction or transport when substrate is in excess. In general, kcat refers to the maximal rate divided by the concentration of active sites. The term kcat/Km denotes the turnover number divided by the Michaelis constant. “Ec.Mdh^7Q (OHB reductase, engineered E. coli malate dehydrogenase) (Escherichia coli K-12; D34G/D86S/G179D/I12V/I35R/M85Q/R81A)”: in data set [3], the Km is 270 µM, the maximal velocity (Vmax) came out at 20 µmol/min/mg, the kcat is 10.8 ± 1.07 s⁻¹ and the kcat/Km came to 40400 ± 1710 M⁻¹ s⁻¹. Moreover, in the data set with O=C(O)C(=O)CCO (setting [5]), the Michaelis-Menten constant (Km) stood at 1080 µM, the Vmax worked out at 155 µmol/min/mg, the turnover number (kcat) turned out to be 83.4 ± 3.4 s⁻¹ and the kcat/Km turned out to be 80300 ± 17300 M⁻¹ s⁻¹. In data set [4] (setting [6]), the Michaelis-Menten constant (Km) was found to be 100 µM, the maximal velocity (Vmax) stood at 119 µmol/min/mg, the kcat came to 64 ± 9.97 s⁻¹ and the specificity constant (kcat/Km) amounted to 645000 ± 76200 M⁻¹ s⁻¹.

As to “Ec.Mdh^5Q (OHB reductase, engineered E. coli malate dehydrogenase) (Escherichia coli K-12; D86S/G179D/I12V/M85Q/R81A)”, in data set [3] (setting [7]), the Michaelis constant (Km) turned out to be 40 µM, the Vmax is 67.7 µmol/min/mg, the turnover number (kcat) was found to be 36.5 ± 1.68 s⁻¹ and the kcat/Km came out at 1.03e+06 ± 67500 M⁻¹ s⁻¹. Further, in the data set on O=C(O)C(=O)CCO (NADH), the Km was determined as 1840 µM, the Vmax was 138 µmol/min/mg, the catalytic constant (kcat) worked out at 74.9 ± 5.63 s⁻¹ and the kcat/Km turned out to be 44900 ± 15200 M⁻¹ s⁻¹. Also, in data set [4] (setting [8]), the Michaelis-Menten constant (Km) is 320 µM, the Vmax was 5.56 µmol/min/mg, the kcat worked out at 2.99 ± 0.35 s⁻¹ and the catalytic efficiency (kcat/Km) was 9500 ± 50 M⁻¹ s⁻¹.
